Assays:
Assay in all cases: indirect ELISA, antigen coated, negative control
[1] = biological target: MPB70 recombinant protein (Mycobacterium bovis) (UniProt P0A669)
[2] = biological target: MPB83 recombinant protein (Mycobacterium bovis) (UniProt P0CAX7)
[3] = biological target: bovine tuberculin purified protein derivative (PPDb)
[4] = biological target: mixture of MPB70 and MPB83 recombinant proteins
[5] = biological target: p10 protein (ESAT-6) (Mycobacterium bovis) (UniProt P0A565)
[6] = biological target: p22 immunogenic composition

UniProt P0A565, sequence (P0A565 2-95 limits assumed): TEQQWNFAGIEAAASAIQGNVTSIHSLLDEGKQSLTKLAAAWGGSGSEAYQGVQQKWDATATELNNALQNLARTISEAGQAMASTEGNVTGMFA
UniProt P0A669, sequence (P0A669 31-193 limits assumed): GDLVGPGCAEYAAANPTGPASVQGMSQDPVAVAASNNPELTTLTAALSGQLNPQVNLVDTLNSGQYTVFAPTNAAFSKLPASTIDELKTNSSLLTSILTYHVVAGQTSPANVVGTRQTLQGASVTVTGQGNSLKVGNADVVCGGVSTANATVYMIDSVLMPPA
UniProt P0CAX7, sequence (P0CAX7 25-220 limits assumed): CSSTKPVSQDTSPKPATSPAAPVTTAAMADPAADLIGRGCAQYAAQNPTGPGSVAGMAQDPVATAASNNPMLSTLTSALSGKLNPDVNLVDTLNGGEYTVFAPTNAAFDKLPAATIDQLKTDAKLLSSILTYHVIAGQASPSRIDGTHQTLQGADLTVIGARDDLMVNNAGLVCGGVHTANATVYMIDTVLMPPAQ

Control - gave an optical density [1] of 0.08 OD, an optical density [2] of 0.07 OD and an optical density [3] of 0.06 OD. For the same substance, the optical density [4] was 0.07 OD, the optical density [5] was 0.06 OD and the optical density [6] was 0.07 OD.

From EP3330286A1
